# Data published in paper PMC10244618.
# Values joined by “and” are separate entries in the source; they are usually repeats but may differ in a detail not shown here. Equal values may be shown once.
# B1: NF2 (merlin) isoform 7, human, full length (507 aa, lacks exons 2-3 = isoform-1 residues 39-121; exon-16 C-terminus), P35240-4 (parent)
# chain: MAGAIASRMSFSSLKRKQPKTFTVRIVTMDAEMEFNCEVKKQILDEKIYCPPEASVLLASYAVQAKYGDYDPSVHKRGFLAQEELLPKRVINLYQMTPEMWEERITAWYAEHRGRARDEAEMEYLKIAQDLEMYGVNYFAIRNKKGTELLLGVDALGLHIYDPENRLTPKISFPWNEIRNISYSDKEFTIKPLDKKIDVFKFNSSKLRVNKLILQLCIGNHDLFMRRRKADSLEVQQMKAQAREEKARKQMERQRLAREKQMREEAERTRDELERRLLQMKEEATMANEALMRSEETADLLAEKAQITEEEAKLLAQKAAEAEQEMQRIKATAIRTEEEKRLMEQKVLEAEVLALKMAEESERRAKEADQLKQDLQEAREAERRAKQKLLEIATKPTYPPMNPIPAPLPPDIPSFNLIGDSLSFDFKDTDMKRLSMEIEKEKVEYMEKSKHLQEQLNELKTEIEALKLKERETALDILHNENSDRGGSSKHNTIKKPQAQGRRPICI
# Variants of: B1
# Experiment: reverse yeast two-hybrid deep mutational scan (rY2H-seq): NF2 isoform 7 mutant library as bait mated with wild-type prey strains; selection on medium lacking adenine for non-interacting pairs; NextSeq paired-end sequencing; enrichment vs …
# Conditions: with KDM1A (lysine-specific histone demethylase 1A; the table's label AOF2 is a gene synonym of KDM1A), O60341; yeast diploids after mating (RBait_S3 x RPrey_S3), 30 °C, selection for reporter genes on NB agar; human ABL2 co-expressed as the kinase-dead K35M mutant …; HIGHER = WEAKER BINDING (the opposite of display enrichments): higher = stronger loss of interaction: reverse Y2H selects yeast in which bait and prey do NOT interact (growth without adenine), so a …; hits-only table; scale: rY2H score; numbering: uniprot, sequence starts at 1
row,Variant,enrichment
1,A393L,1.9
2,H159E,3.49
3,H159P,1.84
4,E123D,1.75
5,E123L,1.42
6,L408K,1.88
7,L158I,2.37
8,T168P,1.77
9,T168D,2.37
10,D369K,2.15
11,P407T,2.05
12,P407K,4.15
13,A406Q,1.87
14,Y67A,3.02
15,A302T,1.57
16,E382A,2.37
17,Q345K,2.79
18,Q345L,3.2
19,A378T,1.71
20,N402L,1.53
21,R25E,3.64 and 8.74
22,E337L,1.6
23,D71K,5.71
24,K191Y,1.65

row,Variant,enrichment
1,A354L,3.5
2,D271K,5.07
3,D271L,4.25
4,R383A,1.83
5,M262I,1.81
6,R228G,8.73
7,Q370A,1.45 and 2.01
8,T332E,7.44
9,T332A,1.86 and 5.52
10,K356L,3.88
11,A385E,2.26 and 2.39
12,R248C,1.52
13,E325T,4.73
14,E325A,3.73
15,L315S,4.11
16,L315P,2.33
17,E362L,2.21
18,V352S,3.21
19,F173S,3.95
20,F173V,2.3
21,E34A,1.5
22,E295K,1.91
23,A331K,2.19
24,Q324Y,1.47

row,Variant,enrichment
1,K386T,5.27
2,Q64L,2.29
3,P405S,6.05
4,L167E,2.5
5,L167A,1.67
6,L348K,3.09
7,R166G,1.77
8,R166E,1.81
9,E344V,1.58
10,Q250L,2.08
11,Q250D,1.46
12,D374T,7.88 and 2.96
13,I160C,1.87
14,A319L,4.6
15,R268E,8.2 and 3.3
16,E351K,1.66 and 2.35
17,L342T,2.83 and 2.72
18,D484K,4.88
19,I307L,2.24 and 1.83
20,R341T,2.28
21,R379C,2
22,R379E,6.74
23,K15E,3.69
24,K15L,1.66

# Same assay, conditions: with EMILIN1 (elastin microfibril interfacer 1), Q9Y6C2; yeast diploids after mating (RBait_S3 x RPrey_S3), 30 °C, selection for reporter genes on NB agar; human tyrosine kinase ABL2 co-expressed as the active kinase …; HIGHER = WEAKER BINDING (the opposite of display enrichments): higher = stronger loss of interaction: reverse Y2H selects yeast in which bait and prey do NOT interact (growth without adenine), so a …; hits-only table; scale: rY2H score; numbering: uniprot, sequence starts at 1
row,Variant,enrichment
1,A393K,1.55
2,H159L,2.93
3,E111A,4.1
4,E123D,1.52
5,R77W,1.39
6,T168A,2.55
7,S483E,1.84
8,D369K,2.69 and 1.81
9,E259K,3.41
10,P407K,2.11
11,P407R,4.09
12,E367K,1.96
13,A406K,2.13
14,A406Q,2.56
15,Q261Y,2.07
16,V74S,6.93
17,D476V,5.43
18,E382A,1.65
19,Q345E,3.31
20,Q345L,2.57
21,A378T,2.24
22,N402L,1.47
23,N402Q,2.62
24,E148K,2.78 and 2.12
25,E337A,1.89
26,G157E,5.67 and 3.65
27,G157K,3.64

row,Variant,enrichment
1,D271L,2.2
2,R383K,2.82
3,R383A,1.5 and 2.77
4,R471G,1.53
5,T332E,4.23 and 3.34
6,T332A,4.79
7,T332S,2.08
8,R248K,1.55
9,R248P,1.52
10,S73L,1.58 and 3.38
11,L314N,18.6
12,E325T,6.21
13,E325A,2.68
14,T461I,1.49
15,L315W,7.24
16,L315K,4.2
17,E362K,4.17
18,F173S,1.69
19,T397L,2.34
20,A331K,4.31
21,A331E,2.11
22,Q324Y,1.67
23,K460E,6.17
24,K386T,7.62
25,K386Q,2.16
26,P405L,5.05
27,T189I,1.59

row,Variant,enrichment
1,L348K,2.78
2,R166N,2.2
3,R166S,8.73
4,L375K,4.18
5,L375A,4.49
6,S489E,7.56
7,E377A,4.03
8,K144L,2.68
9,P399K,1.52
10,P399R,2.33
11,I141L,7.65
12,E444A,10.3 and 7.31
13,A319L,2.38 and 3.16
14,R268E,8.98 and 8.09
15,L342T,4.63
16,D484K,2.87
17,I307Y,2.93
18,I307L,3.37
19,L478A,1.45
20,R341T,3.59
21,R263E,2.7
22,R263G,1.44
23,R379E,3.11 and 8.92
24,A287T,1.8
25,L151E,15.6

# Same assay, conditions: with PIK3R3 (phosphatidylinositol 3-kinase regulatory subunit gamma), Q92569; yeast diploids after mating (RBait_S3 x RPrey_S3), 30 °C, selection for reporter genes on NB agar; human tyrosine kinase ABL2 co-expressed as the active kinase …; HIGHER = WEAKER BINDING (the opposite of display enrichments): higher = stronger loss of interaction: reverse Y2H selects yeast in which bait and prey do NOT interact (growth without adenine), so a …; hits-only table; scale: rY2H score; numbering: uniprot, sequence starts at 1
row,Variant,enrichment
1,A393K,3.14
2,H159L,6.72
3,H159E,6.11
4,L158I,1.48 and 2.46
5,T168A,6.22
6,S483E,3.26
7,D369K,4.98
8,P407T,2.62
9,P407K,2.65
10,A302T,3.87
11,E382A,3 and 1.89
12,Q345E,3.74
13,G157E,5.03 and 2.8
14,G157K,7.92
15,R228G,15.3
16,K356L,7.08
17,A385E,4.1
18,S73L,5.98
19,F173S,4.73 and 5.14
20,Q64L,6.71
21,R166G,1.44
22,R166E,1.52
23,L375K,5.19
24,I160C,1.68
25,R268E,11.6

# Same assay, conditions: with KDM1A (lysine-specific histone demethylase 1A; the table's label AOF2 is a gene synonym of KDM1A), O60341; yeast diploids after mating (RBait_S3 x RPrey_S3), 30 °C, selection for reporter genes on NB agar; human tyrosine kinase ABL2 co-expressed as the active kinase …; HIGHER = WEAKER BINDING (the opposite of display enrichments): higher = stronger loss of interaction: reverse Y2H selects yeast in which bait and prey do NOT interact (growth without adenine), so a …; hits-only table; scale: rY2H score; numbering: uniprot, sequence starts at 1
row,Variant,enrichment
1,H159L,4.15 and 7.93
2,H159E,1.44
3,H159P,3.93 and 3.02
4,E111A,1.51
5,S483E,1.8 and 1.81
6,P407K,2.54
7,Q345K,1.61
8,Q345E,3.73
9,Q345L,2.39
10,E148K,1.49
11,A354L,3.78
12,T332A,2.16
13,A385E,2.59 and 2.4
14,A331K,4.83
15,R166G,1.84
16,R166N,1.82
17,Q250D,1.65
18,L375A,3.07
19,K144L,3.56
20,R268E,7.56
21,I307L,4.9
22,R379C,2.04
23,R379E,5.6

# Same assay, conditions: with NF2 C-terminal domain (wild type; homomeric NF2-NF2 interaction), P35240; yeast diploids after mating (RBait_S3 x RPrey_S3), 30 °C, selection for reporter genes on NB agar; human ABL2 co-expressed as the kinase-dead K35M mutant …; HIGHER = WEAKER BINDING (the opposite of display enrichments): higher = stronger loss of interaction: reverse Y2H selects yeast in which bait and prey do NOT interact (growth without adenine), so a …; hits-only table; partner unresolved; scale: rY2H score; numbering: uniprot, sequence starts at 1
row,Variant,enrichment
1,D369K,2.61
2,E382A,2.83
3,Q345L,1.49 and 2.6
4,K191Y,1.46
5,R383K,1.66
6,T332A,2.4
7,A385E,2.06
8,S73L,3.01
9,L315K,1.46
10,E295K,2.66
11,A331E,1.53
12,K460E,3.55
13,P405L,7.16
14,L167E,4.14 and 3.2
15,L375K,6.66
16,D374T,3.23
17,E351K,2.95 and 2.99
18,R263E,3.74
19,R379E,1.99
